In one series the target is T1, NPY5R (Homo sapiens, UniProt Q15761).
T1 sequence (Q15761 1-445): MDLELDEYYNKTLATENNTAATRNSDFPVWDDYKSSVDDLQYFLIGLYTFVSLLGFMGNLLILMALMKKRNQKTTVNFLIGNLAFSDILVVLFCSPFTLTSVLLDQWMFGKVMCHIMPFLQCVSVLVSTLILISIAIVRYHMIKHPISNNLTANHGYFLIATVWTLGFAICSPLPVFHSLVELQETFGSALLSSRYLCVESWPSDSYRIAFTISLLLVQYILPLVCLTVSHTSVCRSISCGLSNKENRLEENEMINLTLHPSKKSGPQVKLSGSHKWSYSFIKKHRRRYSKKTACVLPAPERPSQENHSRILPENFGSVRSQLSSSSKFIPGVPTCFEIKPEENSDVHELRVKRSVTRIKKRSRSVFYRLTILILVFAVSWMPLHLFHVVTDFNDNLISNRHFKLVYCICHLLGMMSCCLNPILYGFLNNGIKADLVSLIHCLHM
Put plainly: effect on Y2Receptor family: NPY5R. In kind it is cell-based.

The target of the next series is T2, NPY1R (Homo sapiens, UniProt P25929).
T2 sequence (P25929 1-384): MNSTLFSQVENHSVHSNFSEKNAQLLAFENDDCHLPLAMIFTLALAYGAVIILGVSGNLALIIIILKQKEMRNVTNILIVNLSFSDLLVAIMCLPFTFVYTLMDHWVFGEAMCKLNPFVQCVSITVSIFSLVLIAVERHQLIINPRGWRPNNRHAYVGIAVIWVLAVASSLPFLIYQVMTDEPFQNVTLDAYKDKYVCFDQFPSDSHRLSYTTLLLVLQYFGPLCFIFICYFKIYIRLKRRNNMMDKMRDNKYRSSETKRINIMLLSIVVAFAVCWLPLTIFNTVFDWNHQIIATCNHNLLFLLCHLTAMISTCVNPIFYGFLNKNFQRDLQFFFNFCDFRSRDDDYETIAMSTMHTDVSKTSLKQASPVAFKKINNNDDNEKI
Put plainly: effect on Y2Receptor family: NPY1R. In kind it is cell-based.

For another series, the target named is T3, NPY2R (Homo sapiens, UniProt P49146).
T3 sequence (P49146 1-381): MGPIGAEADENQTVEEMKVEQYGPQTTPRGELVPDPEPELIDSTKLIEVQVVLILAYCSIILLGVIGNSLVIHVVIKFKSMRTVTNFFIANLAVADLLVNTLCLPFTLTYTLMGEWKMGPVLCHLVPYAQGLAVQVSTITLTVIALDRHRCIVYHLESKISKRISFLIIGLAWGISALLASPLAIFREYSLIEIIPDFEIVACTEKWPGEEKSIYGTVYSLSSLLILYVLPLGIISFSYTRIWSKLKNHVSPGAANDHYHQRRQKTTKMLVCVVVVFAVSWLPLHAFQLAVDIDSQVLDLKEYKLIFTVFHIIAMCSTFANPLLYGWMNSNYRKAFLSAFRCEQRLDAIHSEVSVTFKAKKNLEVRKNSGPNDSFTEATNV
The series can be described thus: effect on Y2Receptor family: NPY2R. In kind it is cell-based.

The target of another series is NPY4R (Homo sapiens, UniProt P50391). The series can be described thus: effect on Y2Receptor family: NPY4R. In kind it is cell-based.
Series [1] in a line: Dig-peptide serum kinetic (Western blot of digoxigenylated PYY in serum). In kind it is in vivo, mice (strain NRMI). How it is done: Serum samples were stored at −80° C.
The determination of the amount of digoxigenylated peptide in the serum at the given time points was difficult compared to the detection of Dig-Cy5 as no direct means to detect the polypeptide in serum samples was available. Therefore, a Western-Blot related assay to detect digoxigenylated peptide in serum was established. In a first step, the serum samples were separated on reducing SDS-PAGE. Because sample preparation included exposure of the serum to high concentrations of SDS and reducing agents, complexed Dig-polypeptide conjugates can become released from the (completely denatured/unfolded) anti-digoxigenin antibody, whereas covalently conjugates remained bound. To mediate the release of the polypeptide from the non-covalent antibody complex and separate the individual components by SDS-PAGE, 2 μl of each serum sample was diluted in 18 μl 20 mM histidine/140 mM NaCl pH 6.0, mixed with 6.7 μl of 4×LDS sample buffer and 3 μl of 10× sample reducing agent (NuPAGE, Invitrogen) for 5 min at 95° C. As a control, 2 μl of serum of an untreated mouse of the same strain was used. Samples were applied to a 4-12% Bis-Tris Gel (NuPAGE, Invitrogen) which was run at 200 V/120 mA for 20 minutes using 1×MES (Invitrogen) as a running buffer. Subsequently, separated polypeptides were blotted onto a PVDF membrane (0.22 μm pore size, Invitrogen) using the XCell Sure Lock® Mini-Cell system (Invitrogen) for 40 min at 25 V/130 mA. Membranes were blocked in 1% skim milk in 1×PBS+1% Tween20 (PBST) for 1 h at RT. Digoxigenylated polypeptides were subsequently detected on the membrane with an anti-digoxigenin antibody. For that, anti-digoxigenin antibody was applied to the membranes in a concentration of 13 μg/ml in 10 ml of 1% skim milk/PBST for 2 h at RT. Membranes were washed for 3×5 min in 1×PBST. Anti-mouse IgG Fab-fragments coupled to POD from the LumiLight^PLUS Western Blotting Kit (Roche) was applied in a 1:25 dilution in 10 ml of 1% skim milk/PBST for 1 h at RT. […] Chemiluminescence was detected with the LumiImager F1 (Roche) with an exposure time of 20 min.
(A western blot detects proteins with antibodies after separation by electrophoresis.)

Series [2] concerns the target anti-helicar motif amino acid sequence antibody. The series can be described thus: binding [Kd] of PYY peptides by anti-helicar antibody. The following applies: PYY peptide bound by anti-helicar antibody.

Numbered stars: 1 amine (or outer) side, 2 acyl side, 3 side chain; on linkers, the order of the positions; unused ones are H or OH. Square brackets hold non-standard residues; d marks the D form. Ends that are not written are not given here. Pqa = 4-oxo-6-(1-piperazinyl)-3(4H)-quinazoline-acetic acid, O=C(Cn1cnc2ccc(N3CCN([*:1])CC3)cc2c1=O)[*:2]; NMeR = CN[C@@H](CCCNC(=N)N)C(=O)O

Chain of NPY4R (P50391 whole entry, species assumed): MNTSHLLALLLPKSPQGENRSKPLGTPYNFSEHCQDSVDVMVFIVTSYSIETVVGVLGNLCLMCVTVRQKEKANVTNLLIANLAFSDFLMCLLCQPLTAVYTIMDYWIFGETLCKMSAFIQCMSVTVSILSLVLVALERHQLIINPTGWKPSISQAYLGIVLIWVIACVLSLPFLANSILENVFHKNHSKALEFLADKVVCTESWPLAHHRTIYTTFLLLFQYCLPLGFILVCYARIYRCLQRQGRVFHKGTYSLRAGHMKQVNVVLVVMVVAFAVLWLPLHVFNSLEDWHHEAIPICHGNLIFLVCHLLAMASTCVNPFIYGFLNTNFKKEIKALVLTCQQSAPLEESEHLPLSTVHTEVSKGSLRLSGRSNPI

Consider “Ac-Ile-Lys-Pqa-Arg-His-Tyr-Leu-Asn-Trp-Val-Thr-Arg-Gln-(NMe)-Arg-Try-NH2 * 4 HOAc (Ac-IK[Pqa]RHYLNWVTRQ[NMeR]Y-NH2; also: 4 HOAc salt) [reference compound]”, for which the NPY5R entry in the series with NPY5R was “inactive”. Besides, the NPY1R result in the series with NPY1R was “inactive”. Also, in the series with NPY2R, the NPY2R was determined as 1.0 nM. For the same substance, the NPY4R entry with NPY4R is “inactive”.

For the substance “DIG-PYY: digoxigenylated PYY polypeptide”, the “digoxigenylated polypeptide signal in serum” value in series [1] (5 min after administration) is “only in trace amounts”; in series [1] (later time points up to 24 hrs.), “no defined polypeptide band was detectable”. Also, the “half-life in the serum” value in series [1] (mouse, in vivo) is recorded as “very short half-life”.

As usually defined, the Kd is the concentration at which binding is half-saturated. Low readings indicate a tighter complex, high ones a looser complex. Substance “IKPEAPGEDASPEAHLANEVARLHYLNLVTRQRY-NH2 [PYY_helicar]” displayed a Kd in series [2] of 12 nM. For the same substance, on NPY5R, the NPY5R result is “inactive”. Also, the NPY2R at NPY2R is given as 6.38 nM. For the same substance, the NPY4R entry at NPY4R was “inactive”.

Source of the values: patent US10407511B2, “Covalently linked helicar-anti-helicar antibody conjugates and uses thereof” (Hoffmann-La Roche Inc., priority 2014, dated 2019).
